Data on two substances can be found in US20250066483A1.

Assay [1] concerns the target canine PD-L1-His (canine). Kind of assay: SPR (Biacore X100), cPD-L1-His captured by anti-histidine antibody on a CM5 chip, canine PD-1-Ig as analyte. (SPR reads the build-up and loss of mass on a sensor chip optically.)
In assay [2] the target is canine PD-L1-His (canine). Kind of assay: SPR (Biacore X100), cPD-L1-His captured by anti-histidine antibody on a CM5 chip, canine CD80-Ig as analyte.

By Kd is commonly meant the constant that tells how readily two partners part at equilibrium. The low end stands for higher affinity, the high end for lower affinity. Substance canine PD-1-Ig (Fc fusion) had a dissociation constant Kd in assay [1] of 25.4 nM.

As to canine CD80-Ig (Fc fusion), the Kd in assay [2] turned out to be 24.3 nM. In other words, the double-digit nanomolar range.
